The record followed here is PMC314469, “Protein Interaction Networks by Proteome Peptide Scanning” (PLoS Biology, 2004).

The target of assay [1] is T1, amphyphisin SH3 (AMPH_HUMAN), P49418.
T1 chain: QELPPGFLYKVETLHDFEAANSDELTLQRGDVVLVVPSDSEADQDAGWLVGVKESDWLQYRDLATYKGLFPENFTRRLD
Nature of the assay: SPOT array.

Assay [2] concerns the target endophilin SH3 (SH3G2_HUMAN), Q99962. Nature of the assay: SPOT array.

IFVAPKRPSPLPRA [Q9NZP6 64-77]: the normalised SPOT signal, Boehringer light units (BLU); mean over the file's lines of this peptide was found to be 4170 in assay [1] and 7170 in assay [2].

Consider IDPAILRPGRPDQL [Q9HAP0 257-270], for which the normalised SPOT signal, Boehringer light units (BLU); mean over the file's lines of this peptide in assay [1] stood at 220; in assay [2] it was 169.

Take HSTGINRPKRTGSL [P28749 775-788]: the values for the normalised SPOT signal, Boehringer light units (BLU); mean over the file's lines of this peptide in assay [1] and in assay [2] were 2890 and 224, respectively.

Regarding ALQPPRRPKSSNPF [Q9Y6N1 67-80], the normalised SPOT signal, Boehringer light units (BLU); mean over the file's lines of this peptide in assay [1] was found to be 140; in assay [2], 22500.

IDPALRRPGRFDRE [Q96IW6 580-593]: the normalised SPOT signal, Boehringer light units (BLU); mean over the file's lines of this peptide was determined as 314 in assay [1] and 108 in assay [2].

As for ISHLPSRPVKPNII [Q9BZQ1 159-172], the normalised SPOT signal, Boehringer light units (BLU); mean over the file's lines of this peptide in assay [1] is 97.4; in assay [2] it was 120.

As to IFGPLKRPIVEFSL [Q9NW13 566-579], the normalised SPOT signal, Boehringer light units (BLU); mean over the file's lines of this peptide in assay [1] stood at 27.1; in assay [2], 61.9.

For HYLVPVRPRRQIVY [Q9Y4V7 156-169], the values for the normalised SPOT signal, Boehringer light units (BLU); mean over the file's lines of this peptide in assay [1] and in assay [2] were 5140 and 3150, respectively.

IDPAILRPGRLDQL [P55072 629-642]: the values for the normalised SPOT signal, Boehringer light units (BLU); mean over the file's lines of this peptide in assay [1] and in assay [2] were 304 and 87, respectively.

On to IDPALLRPGRLDKS [O43933 989-1002], for which the normalised SPOT signal, Boehringer light units (BLU); mean over the file's lines of this peptide in assay [1] came out at 619; in assay [2], 0.

IDPAILRPGRLDKT [O15381 730-743]: the normalised SPOT signal, Boehringer light units (BLU); mean over the file's lines of this peptide in assay [1] came out at 317; in assay [2], 225.

On to HTKNLLRPTKLNLQ [Q9BXU7 768-781], for which the results for the normalised SPOT signal, Boehringer light units (BLU); mean over the file's lines of this peptide in assay [1] and in assay [2] were 110 and 61.7, respectively.

Regarding ALPSPLRPPAPPLP [Q9NR83 285-299], the normalised SPOT signal, Boehringer light units (BLU); mean over the file's lines of this peptide in assay [1] worked out at 299; in assay [2], 1950.

Take IFDGIQRPLKDINE [P38607 97-110]: the normalised SPOT signal, Boehringer light units (BLU); mean over the file's lines of this peptide turned out to be 81.7 in assay [1] and 127 in assay [2].

On to HTVELRRPSSDMEG [O14791 6-19], for which the normalised SPOT signal, Boehringer light units (BLU); mean over the file's lines of this peptide in assay [1] amounted to 50.5; in assay [2] it was 27.4.

In the case of IAWGLRRPIRLQMQ [Q9H2L5 59-72], the normalised SPOT signal, Boehringer light units (BLU); mean over the file's lines of this peptide in assay [1] is 489; in assay [2], 846.

Turning to IFMYLRRPTEESVE [Q96RC0 189-202], the normalised SPOT signal, Boehringer light units (BLU); mean over the file's lines of this peptide was found to be 111 in assay [1] and 165 in assay [2].

Regarding ISTKLVRPKRKHGT [P42679 203-216], the normalised SPOT signal, Boehringer light units (BLU); mean over the file's lines of this peptide in assay [1] came out at 2410; in assay [2] it was 97.8.

In the case of IEPQIRRPRSLSSP [O43165 457-470], the results for the normalised SPOT signal, Boehringer light units (BLU); mean over the file's lines of this peptide in assay [1] and in assay [2] were 113 and 365, respectively.

Turning to IFSTLKRPQVETKT [Q96NM3 19-32], the results for the normalised SPOT signal, Boehringer light units (BLU); mean over the file's lines of this peptide in assay [1] and in assay [2] were 39.7 and 36.9, respectively.

With IEEVPPRPPSPPKK [Q16348 18-32], the normalised SPOT signal, Boehringer light units (BLU); mean over the file's lines of this peptide in assay [1] stood at 225; in assay [2], 4240.

Take ISPEFKRPRDIAVD [Q9NZR2 3964-3977]: the results for the normalised SPOT signal, Boehringer light units (BLU); mean over the file's lines of this peptide in assay [1] and in assay [2] were 30.4 and 14.9, respectively.

As for HTAEFRRPMATGDT [Q9H6N9 66-79], the normalised SPOT signal, Boehringer light units (BLU); mean over the file's lines of this peptide came out at 45.7 in assay [1] and 18.7 in assay [2].

As to HVFQFTRPPRETPT [O75354 116-129], the normalised SPOT signal, Boehringer light units (BLU); mean over the file's lines of this peptide in assay [1] worked out at 4870; in assay [2] it was 171.

As to IDEALLRPGRLEVK [P46459 379-392], the normalised SPOT signal, Boehringer light units (BLU); mean over the file's lines of this peptide in assay [1] stood at 370; in assay [2], 0.

HVQSPEKPPTSPRE [BAC05287 132-146]: the figures for the normalised SPOT signal, Boehringer light units (BLU); mean over the file's lines of this peptide in assay [1] and in assay [2] were 49.7 and 49.6, respectively.

As to ISQKIKRPANSGEL [Q9H4G7 129-142], the normalised SPOT signal, Boehringer light units (BLU); mean over the file's lines of this peptide in assay [1] came to 45.6; in assay [2], 24.2.

Turning to IAEALSRPGREASL [O15069 1001-1014], the normalised SPOT signal, Boehringer light units (BLU); mean over the file's lines of this peptide in assay [1] stood at 932; in assay [2], 142.
